{"source": "patent US20220096654A1", "about": "“PYRROLOBENZODIAZEPINE-ANTIBODY CONJUGATES AND USES THEREOF” (ADC THERAPEUTICS SA, priority 2020, published 2022)", "binders": {"B1": {"name": "YTH54.12-B7 (antibody, V domains shown)", "VH": "EVQLVESGGGLVQPGGSMKLSCAASGFTFSDYYMAWVRQAPKKGLEWVASMSFAGSSTYYGDSVKGRFTISRDNAKTTLYLQMNSLRSEDTATYYCARMYTTDYYLYWYFDFWGPGTMVTVSS", "VL": "DVQMTQSPSYLAASPGESVSISCKASKSISNYLAWYQQKPGEANKILIYSGSTLQSGTPSRFSGSGSGTDFSLTIRNLEPEDFAVYYCQQYDEKPLTFGSGTKLEIKR", "modifications": "PBD drug-linker B7 conjugated; sites and DAR not stated"}, "B2": {"name": "YTH54.12-rat IgG2b-PBD (drug-linker B1) (antibody, V domains shown)", "VH": "B1 VH", "VL": "B1 VL", "modifications": "PBD dimer drug-linker B1; light chains unconjugated or attached to a single molecule of B1; sites not given; PBD dimer drug-linker B1 conjugated after TCEP reduction; heavy chains attached to up to five molecules of B1; sites not given; DAR 1.90 (preparation) / 2.00"}, "B3": {"name": "YTH54.12-B4 (antibody, V domains shown)", "VH": "B1 VH", "VL": "B1 VL", "modifications": "PBD drug-linker B4 (non-cleavable) conjugated; sites and DAR not stated"}, "B4": {"name": "YTH54.12-B2 (antibody, V domains shown)", "VH": "B1 VH", "VL": "B1 VL", "modifications": "PBD drug-linker B2 conjugated; sites and DAR not stated"}, "B5": {"name": "YTH24.5-rat IgG2b-PBD (drug-linker B1) (antibody, V domains shown)", "VH": "QVNLLQSGAALVKPGASVKLSCKASSYTFTDYYIHWVKQSHGKTLEWIGYINPKSGFTNYNEKFRRKATLTVDKSTNTAYMDISRLTSEDSATYYCTRRTGVIPMDAWGQGASVTVSS", "VL": "DVVMTQTPVSLSVSLGGQVSISCRSSQSFVSSDGNTYLNWYLQKPGQSPQLLIYKVSNRLSGVPDRFSGSGSGTDFTLKISRVEHDDLGVYYCGQASKIPLTFGSGTKLEIKR", "modifications": "PBD dimer drug-linker B1; light chains unconjugated or attached to a single molecule of B1; sites not given; PBD dimer drug-linker B1 conjugated after TCEP reduction; heavy chains attached to up to five molecules of B1; sites not given; DAR 1.94 (preparation) / 2.00"}, "B6": {"name": "YTH24.5-B7 (antibody, V domains shown)", "VH": "B5 VH", "VL": "B5 VL", "modifications": "PBD drug-linker B7 conjugated; sites and DAR not stated"}, "B7": {"name": "YTH24.5-B2 (antibody, V domains shown)", "VH": "B5 VH", "VL": "B5 VL", "modifications": "PBD drug-linker B2 conjugated; sites and DAR not stated"}, "B8": {"name": "YTH24.5-B4 (antibody, V domains shown)", "VH": "B5 VH", "VL": "B5 VL", "modifications": "PBD drug-linker B4 (non-cleavable) conjugated; sites and DAR not stated"}, "B9": {"name": "YTH54.12-hIgG1-AAA-PBD (antibody, DAR 2.10, V domains shown)", "VH": "B1 VH", "VL": "DVQMTQSPSYLAASPGESVSISCKASKSISNYLAWYQQKPGEANKILIYSGSTLQSGTPSRFSGSGSGTDFSLTIRNLEPEDFAVYYCQQYDEKPLTFGSGTKLEIK"}, "B10": {"name": "YTH24.5-hIgG1-AAA-PBD (antibody, DAR 2.08, V domains shown)", "VH": "B5 VH", "VL": "DVVMTQTPVSLSVSLGGQVSISCRSSQSFVSSDGNTYLNWYLQKPGQSPQLLIYKVSNRLSGVPDRFSGSGSGTDFTLKISRVEHDDLGVYYCGQASKIPLTFGSGTKLEIK"}}}
{"biological_target": "T1, human CD45 (human, UniProt P08575 26-1306)", "T1 sequence": "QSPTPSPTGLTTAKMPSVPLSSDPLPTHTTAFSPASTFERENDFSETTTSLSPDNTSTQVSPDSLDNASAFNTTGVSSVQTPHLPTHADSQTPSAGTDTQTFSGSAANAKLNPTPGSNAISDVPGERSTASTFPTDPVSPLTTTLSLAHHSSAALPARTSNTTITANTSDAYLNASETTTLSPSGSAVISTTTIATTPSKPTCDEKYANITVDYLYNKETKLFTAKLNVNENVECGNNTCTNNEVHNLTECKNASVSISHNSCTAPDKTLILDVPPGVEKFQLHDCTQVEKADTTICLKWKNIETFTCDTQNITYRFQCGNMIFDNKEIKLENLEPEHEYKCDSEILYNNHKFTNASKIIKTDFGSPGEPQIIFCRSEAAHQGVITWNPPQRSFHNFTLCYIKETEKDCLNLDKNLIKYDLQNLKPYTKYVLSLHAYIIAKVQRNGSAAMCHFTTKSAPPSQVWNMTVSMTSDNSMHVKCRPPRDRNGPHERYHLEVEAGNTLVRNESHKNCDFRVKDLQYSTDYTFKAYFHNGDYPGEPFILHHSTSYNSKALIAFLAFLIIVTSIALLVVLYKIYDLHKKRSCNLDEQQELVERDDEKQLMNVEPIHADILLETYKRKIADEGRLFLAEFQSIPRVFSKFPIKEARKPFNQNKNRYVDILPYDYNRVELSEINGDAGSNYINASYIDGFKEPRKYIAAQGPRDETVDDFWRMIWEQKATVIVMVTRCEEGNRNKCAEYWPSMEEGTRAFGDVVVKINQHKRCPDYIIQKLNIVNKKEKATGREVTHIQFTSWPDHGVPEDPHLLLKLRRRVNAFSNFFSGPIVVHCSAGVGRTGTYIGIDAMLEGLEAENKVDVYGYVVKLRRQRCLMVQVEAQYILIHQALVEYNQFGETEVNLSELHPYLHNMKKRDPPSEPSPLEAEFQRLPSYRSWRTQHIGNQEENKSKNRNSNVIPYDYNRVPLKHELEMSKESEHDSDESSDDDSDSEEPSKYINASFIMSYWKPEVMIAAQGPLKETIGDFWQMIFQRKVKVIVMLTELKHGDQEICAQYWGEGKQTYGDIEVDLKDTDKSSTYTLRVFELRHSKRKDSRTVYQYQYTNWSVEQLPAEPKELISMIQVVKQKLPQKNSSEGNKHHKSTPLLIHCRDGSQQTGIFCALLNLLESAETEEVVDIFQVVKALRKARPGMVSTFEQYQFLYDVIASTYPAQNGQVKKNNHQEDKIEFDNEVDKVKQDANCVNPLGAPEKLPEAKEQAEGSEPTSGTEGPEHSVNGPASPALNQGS", "assay": "cell-based or functional assay", "units": {"Average EC50, clonogenic assay, primary human CD34+ cells": "pM"}}
{"binder": "B1", "Average EC50, clonogenic assay, primary human CD34+ cells": 45.1}
{"binder": "B2", "Average EC50, clonogenic assay, primary human CD34+ cells": 1.52}
{"binder": "B3", "Average EC50, clonogenic assay, primary human CD34+ cells": 4.47}
{"binder": "B4", "Average EC50, clonogenic assay, primary human CD34+ cells": 23.9}
{"binder": "B5", "Average EC50, clonogenic assay, primary human CD34+ cells": 2.64}
{"binder": "B6", "Average EC50, clonogenic assay, primary human CD34+ cells": 35.5}
{"binder": "B7", "Average EC50, clonogenic assay, primary human CD34+ cells": 32.7}
{"binder": "B8", "Average EC50, clonogenic assay, primary human CD34+ cells": 4.92}
{"biological_target": "T1, human CD45", "assay": "cell-based or functional assay", "remark": "another data set of the same source", "units": {"Average EC50, viability assay, Jurkat (CD45+), 5 days": "pM", "Average EC50, viability assay, OCIM1 (CD45+), 5 days": "pM"}}
{"binder": "B1", "Average EC50, viability assay, Jurkat (CD45+), 5 days": 4.79, "Average EC50, viability assay, OCIM1 (CD45+), 5 days": 1.07}
{"binder": "B2", "Average EC50, viability assay, Jurkat (CD45+), 5 days": 0.127, "Average EC50, viability assay, OCIM1 (CD45+), 5 days": 0.039}
{"binder": "B3", "Average EC50, viability assay, Jurkat (CD45+), 5 days": 0.091, "Average EC50, viability assay, OCIM1 (CD45+), 5 days": 0.22}
{"binder": "B4", "Average EC50, viability assay, Jurkat (CD45+), 5 days": 2.43, "Average EC50, viability assay, OCIM1 (CD45+), 5 days": 0.58}
{"binder": "B5", "Average EC50, viability assay, Jurkat (CD45+), 5 days": 0.213, "Average EC50, viability assay, OCIM1 (CD45+), 5 days": 0.03}
{"binder": "B6", "Average EC50, viability assay, Jurkat (CD45+), 5 days": 8.4, "Average EC50, viability assay, OCIM1 (CD45+), 5 days": 2.18}
{"binder": "B7", "Average EC50, viability assay, Jurkat (CD45+), 5 days": 2.12, "Average EC50, viability assay, OCIM1 (CD45+), 5 days": 0.025}
{"binder": "B8", "Average EC50, viability assay, Jurkat (CD45+), 5 days": 0.052, "Average EC50, viability assay, OCIM1 (CD45+), 5 days": 0.096}
{"biological_target": "T1, human CD45", "assay": "cell-based or functional assay", "remark": "another data set of the same source", "units": {"EC50, clonogenic assay, CD34+ PBSC (CD45+)": "pM", "EC50, viability assay, Jurkat (CD45+), 72 h": "pM", "EC50, viability assay, OCIM1 (CD45+), 72 h": "pM"}}
{"binder": "B9", "EC50, clonogenic assay, CD34+ PBSC (CD45+)": 6.4, "EC50, viability assay, Jurkat (CD45+), 72 h": 18, "EC50, viability assay, OCIM1 (CD45+), 72 h": 9.7}
{"binder": "B2", "EC50, clonogenic assay, CD34+ PBSC (CD45+)": 23, "EC50, viability assay, Jurkat (CD45+), 72 h": 4.44, "EC50, viability assay, OCIM1 (CD45+), 72 h": 1.89}
{"binder": "B5", "EC50, clonogenic assay, CD34+ PBSC (CD45+)": 16.5, "EC50, viability assay, Jurkat (CD45+), 72 h": 5.36, "EC50, viability assay, OCIM1 (CD45+), 72 h": 1.38}
{"binder": "B10", "EC50, clonogenic assay, CD34+ PBSC (CD45+)": 7.9, "EC50, viability assay, Jurkat (CD45+), 72 h": 23, "EC50, viability assay, OCIM1 (CD45+), 72 h": 6.8}
